Assay results: article PMC8995368 (Structure (London, England : 1993), 2022)

B1: Myxococcus xanthus encapsulin cargo protein EncB (ferritin-like protein) (natural protein, M. xanthus, UniProt Q1D6H3 1-158, looked up)
chain: MAGPPDSDLDDVARIRLVLARELETINEYEAYARASSNPEVRAFFQHLAAEEKEHVSEAVHMLRMLDSGQNDHFAKPFVPGHFQAAEAPAPATVHVPTPDGPAFSVNGRNGRLPSEPPTSLPPQRLLYGLPAPPPAVESHPLTVGSLRRGGGGSGSGR
B2: Myxococcus xanthus encapsulin cargo protein EncC (ferritin-like protein) (natural protein, M. xanthus)
chain: MPQTNPFHSLVPRKMTDTELARSIRLNIEAELDAINLYAAHIDATDNEDAKAILQHVMDEEREHAALFWELIARLDPEQAAHAKEAVEKYRLITSGASHEAVEAVGKEGAAPSPADVTPEKRLTVGSLRR

Target: the molecule itself
Experiment: crystal structure

Row | Protein | stoichiometry N
1 | B1 | 10
2 | B2 | 10
